{"source": "patent US20110274721A1", "biological_target": "gp140ΔCFI B(C-HR2) ext 2F5 (HIV-1 strain HXB2 (clade B); HIV-1 strain BaL (clade B); HIV-1; HIV-1 strain 97ZA012 (clade C)) (UniProt P04578)", "assay": "ELISA on Env from transfected 293 cells"}
{"substance": "monoclonal antibody 2F5", "values": [{"measurement": "fold higher reactivity than the parental clade B gp140ΔCFI", "result": "20 to 30", "unit": "fold"}]}
